Measurements from US20250339569A1 (3B PHARMACEUTICALS, published 2025).
Values belong to the binder of their own block, whether it stands above or below them. Starred links: 1 amine or outer side, 2 acyl side, 3 side chain; linkers in the order of their positions; H or OH if unused. Positions of bridges follow the written chain, without caps; N, C: chain ends. Non-standard residues stand in square brackets, D forms with d. Primed or numbered codes have the meaning given here. No end group written: not given here. *: point of attachment. Af3(Aytr) = 3-amino-L-phenylalanine, ring amine acylated with triazol-1-yl acetic acid bearing a 4-hydroxamic acid group, O=C(Cn1cc(C(=O)NO)nn1)Nc1cccc(C[C@H](N[*:1])C(=O)[*:2])c1; Af3(CMPy) = 3-amino-L-phenylalanine acylated on the ring amine with 5-cyano-1-methyl-1H-pyrazole-4-carboxylic acid, Cn1ncc(C(=O)Nc2cccc(C[C@H](N[*:1])C(=O)[*:2])c2)c1C#N; Aph(Hspy) = 4-amino-L-phenylalanine, ring amine acylated with 4-sulfamoyl-1H-pyrrole-2-carboxylic acid, NS(=O)(=O)c1c[nH]c(C(=O)Nc2ccc(C[C@H](N[*:1])C(=O)[*:2])cc2)c1; Aph(HO-Succinyl) = 4-aminophenylalanine acylated on the ring amine with succinic acid (free carboxyl), O=C(CCC(=O)[*:3])Nc1ccc(C[C@H](N[*:1])C(=O)[*:2])cc1; Af3(PrHydr) = 3-amino-L-phenylalanine, ring amine acylated by 4-(hydroxycarbamoyl)butanoic acid, O=C(CCCC(=O)Nc1cccc(C[C@H](N[*:1])C(=O)[*:2])c1)NO; Aph(MSAc) = 4-aminophenylalanine acylated on the ring amine with 2-methanesulfonylacetic acid, CS(=O)(=O)CC(=O)Nc1ccc(C[C@H](N[*:1])C(=O)[*:2])cc1; Aph(SaPr)″ = 4-amino-L-phenylalanine, ring amine acylated with 3-sulfamoylpropanoic acid, NS(=O)(=O)CCC(=O)Nc1ccc(C[C@H](N[*:1])C(=O)[*:2])cc1; Aph(SaPr) = 4-amino-L-phenylalanine, ring amine acylated by 3-sulfamoylpropanoic acid, NS(=O)(=O)CCC(=O)Nc1ccc(C[C@H](N[*:1])C(=O)[*:2])cc1; Af3(DkpAc) = 3-amino-L-phenylalanine acylated on the ring amine with 2-(3,6-dioxopiperazin-2-yl)acetic acid; Af3(Cshx) = 3-amino-L-phenylalanine, ring amine acylated with 4-sulfamoylcyclohexane-1-carboxylic acid; Phe(3-NHCO(CH2)3SO2NH2) = N[C@@H](Cc1cccc(NC(=O)CCCS(N)(=O)=O)c1)C(=O)O; APAc″ = 2-(4-(amino)piperidin-1-yl)acetic acid, NC1CCN(CC(=O)*)CC1; DOTA = O=C(O)CN1CCN(CC(=O)O)CCN(CC(=O)*)CCN(CC(=O)O)CC1; PPAc = 4-carboxymethyl piperazine linker; mXylylene = c1cc(C[*:1])cc(C[*:2])c1; Af3(Aype) = not defined here; Af3(Hytr) = not defined here; Aph(Aybu) = not defined here; PPAc″ = not defined here; Dap = NC[C@H](N)C(=O)O; AEEA = NCCOCCOCC(=O)O

What was measured:
[1] = molecular target: T1, human carbonic anhydrase 9 (CAIX) (human, UniProt Q16790 38-459); test: FACS competition on HT-29 cells, competitor tracer 3BP-4149; category C = pIC50 6.1-7.0
Experimental: (§1) CAIX-expressing human HT-29 colorectal cancer cells (DSMZ, RRID: CVCL_0320) were cultured in McCoys's 5A modified medium (Biochrom, #F1015) including 10% fetal calf serum (FCS), 2 mM L-glutamine, 100 U/ml penicillin and 100 μg/mL streptomycin. Cells were detached with Accutase (Biolegend, #423201) and washed in FACS buffer (PBS including 1% FCS). Cells were diluted in FACS buffer to a final concentration of 500.000 cells per ml. 200 μL of the cell suspension were transferred to a u-shaped non-binding 96-well plate (Greiner) and cells were washed in ice-cold FACS buffer.
(§2) When biotinylated compounds were used an additional incubation step with 1 μg/mL APC-Streptavidin (Miltenyi; #130-106-791) in 50 μL FACS buffer for 30 minutes on ice was performed.
(§3) Cells were washed twice with ice-cold FACS buffer and analyzed in an Attune NxT flow cytometer (Thermo Fisher). Median fluorescence intensities (MFI) of the APC/Cy5-channel were calculated by Attune NxT software.

[2] = molecular target: T2, human carbonic anhydrase IV (CAIV), biotinylated (human, UniProt P22748 19-283, limits assumed, biotinylated); test: SPR, biotinylated CAIV captured (Biotin CAPture)
T2 construct: Bought (SinoBiological, Cat # printed 10472-1H081H); also called hCAIV-bio
T2 sequence (P22748 19-283 limits assumed): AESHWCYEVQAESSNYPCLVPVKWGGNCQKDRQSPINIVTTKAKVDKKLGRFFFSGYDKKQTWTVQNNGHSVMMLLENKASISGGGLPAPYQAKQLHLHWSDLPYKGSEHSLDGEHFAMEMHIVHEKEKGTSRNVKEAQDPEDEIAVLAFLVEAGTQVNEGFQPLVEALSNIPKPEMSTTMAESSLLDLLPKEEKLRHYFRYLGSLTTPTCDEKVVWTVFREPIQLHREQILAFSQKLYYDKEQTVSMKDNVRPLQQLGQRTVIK
Excerpt: (§4) For each test compound, SPR raw data in the form of resonance units (RU) were plotted as sensorgrams using the Biacore™ T200 control software. The signal from the blank sensorgram was subtracted from that of the test compound sensorgram (blank corrected). The blank corrected sensorgram was corrected for baseline drift by subtracting the sensorgram of a SCK run without the test compound (running buffer only). […] Raw data and fit results were imported as text files in IDBS. The pKD value (negative decadic logarithm of dissociation constant) was calculated in the IDBS excel template.

[3] = molecular target: T3, Fc-fusion protein of human carbonic anhydrase IX (human, UniProt Q16790 38-414); test: SPR, captured hCAIX-Fc; t1/2 category A: >15.0 min
[4] = molecular target: T4, human carbonic anhydrase XIV (CAXIV), biotinylated (human, UniProt Q9ULX7 16-290, biotinylated); test: SPR, biotinylated CAXIV captured (Biotin CAPture)
T4 construct: Bought (SinoBiological Cat #10458-H08H); also called hCAXIV-bio
T4 sequence (Q9ULX7 16-290 limits assumed): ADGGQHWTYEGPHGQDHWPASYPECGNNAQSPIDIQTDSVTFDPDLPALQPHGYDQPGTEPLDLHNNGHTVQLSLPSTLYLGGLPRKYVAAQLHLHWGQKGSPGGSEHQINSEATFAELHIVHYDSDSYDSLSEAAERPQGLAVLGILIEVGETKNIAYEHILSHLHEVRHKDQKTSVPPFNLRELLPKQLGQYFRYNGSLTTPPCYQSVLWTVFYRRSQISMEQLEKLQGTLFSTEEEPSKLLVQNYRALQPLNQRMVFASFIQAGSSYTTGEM
Excerpt: as §4

[5] = molecular target: T5, human carbonic anhydrase XII (CAXII), biotinylated (human, UniProt O43570 25-301, biotinylated); test: SPR, biotinylated CAXII captured (Biotin CAPture)
T5 construct: Bought (SinoBiological Cat #10617-H08H); also called hCAXII-bio
T5 sequence (O43570 25-301 limits assumed): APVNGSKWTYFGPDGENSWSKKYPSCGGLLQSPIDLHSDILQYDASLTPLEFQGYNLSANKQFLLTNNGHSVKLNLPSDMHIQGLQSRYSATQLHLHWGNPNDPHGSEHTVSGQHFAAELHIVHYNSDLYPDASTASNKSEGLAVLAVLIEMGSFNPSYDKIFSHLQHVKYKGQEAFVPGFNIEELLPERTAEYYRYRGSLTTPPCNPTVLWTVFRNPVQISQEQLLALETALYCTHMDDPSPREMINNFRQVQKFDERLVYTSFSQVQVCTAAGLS
Excerpt: as §4

[6] = molecular target: T6, human carbonic anhydrase IX (CAIX) (human, UniProt Q16790 38-459); test: FACS competition, HT-29 cells, tracer 3BP-2776; pIC50 category C: 6.1-7.0
Experimental: as §1, §2, §3

[7] = molecular target: T1, human carbonic anhydrase 9 (CAIX); test: FACS competition on HT-29 cells, competitor tracer 3BP-4149; category A = pIC50 >8.0
Experimental: as §1, §2, §3

[8] = molecular target: T3, Fc-fusion protein of human carbonic …; test: SPR, captured hCAIX-Fc; pKD category B: 7.1-8.0
Experimental: (§5) Stock solutions of test compounds were prepared by dissolving each compound in DMSO. DMSO stock solution were diluted 1:1000 in Running Buffer without DMSO. […] SPR binding analyses were performed in Single Cycle Kinetic (SCK) mode at 25° C.
as §4

[9] = molecular target: T3, Fc-fusion protein of human carbonic …; test: SPR, captured hCAIX-Fc; t1/2 category C: 2.1-5.0 min
[10] = molecular target: T3, Fc-fusion protein of human carbonic …; test: SPR, captured hCAIX-Fc; pKD category A: >8.0
[11] = molecular target: T6, human carbonic anhydrase IX (CAIX); test: FACS competition, HT-29 cells, tracer 3BP-2776; pIC50 category B: 7.1-8.0
Experimental: as §1, §2, §3

[12] = molecular target: T3, Fc-fusion protein of human carbonic …; test: SPR, captured hCAIX-Fc; t1/2 category D: <=2.0 min
Experimental: as §5, §4

pIC50 [1]: 6.1 to 7 pic50
Binder: {DOTA-APAc″}-VYCE[dP]D[Aph(MSAc)]LTWSC-NH2 (linker 3-12 via mXylylene) [3BP-4360]

pKD [2]: < 6 pkd | t1/2 (half-life of the complex, SPR) [3]: > 15 min | pKD [4]: < 6 pkd | pKD [5]: < 6 pkd
Binder: {DOTA}-QCE[dP]D[Aph(SaPr)″]LTWSC-NH2 (linker 2-11 via mXylylene; also: Lu complexed in DOTA, also called natLu-3BP-4501) [3BP-4581]

pIC50 [6]: 6.1 to 7 pic50
Binder: {DOTA-PPAc}-QCE[dP]D[Aph(Aybu)]LTWSC-NH2 (linker 2-11 via mXylylene; reading uncertain) [3BP-4884]

pIC50 [7]: > 8 pic50
B1: 3BP-4338 (peptide)
peptide: DCE[dP]DWLTW[Dap]C-NH2
modifications: lactam 1-10; linker 2-11 via mXylylene; not fully specified (N-terminus); also: indium complexed by DOTA

pIC50 [6]: 6.1 to 7 pic50
Binder: {DOTA-PPAc}-QCE[dP]D[Af3(Aype)]LTWSC-NH2 (linker 2-11 via mXylylene; reading uncertain) [3BP-4886]

pKD [8]: 7.1 to 8 pkd | t1/2 (half-life of the complex, SPR) [9]: 2.1 to 5 min
B2: 3BP-3869 (peptide)
peptide: {DOTA-AEEA}-YCE[dP]DWLTWSC-NH2
modifications: linker 2-11 via mXylylene
SMILES: CC(C)C[C@@H]1NC(=O)[C@H](Cc2c[nH]c3ccccc23)NC(=O)[C@H](CC(=O)O)NC(=O)[C@H]2CCCN2C(=O)[C@H](CCC(=O)O)NC(=O)[C@@H](NC(=O)[C@H](Cc2ccc(O)cc2)NC(=O)COCCOCCNC(=O)CN2CCN(CC(=O)O)CCN(CC(=O)O)CCN(CC(=O)O)CC2)CSCc2cccc(c2)CSC[C@@H](C(N)=O)NC(=O)[C@H](CO)NC(=O)[C@H](Cc2c[nH]c3ccccc23)NC(=O)[C@H]([C@@H](C)O)NC1=O

t1/2 (half-life of the complex, SPR) [3]: > 15 min | pKD [10]: > 8 pkd | pIC50 [11]: 7.1 to 8 pic50
Binder: {DOTA-PPAc}-DCE[dP]D[Phe(3-NHCO(CH2)3SO2NH2)]LTW[Dap]C-NH2 (lactam 1-10; linker 2-11 via mXylylene) [3BP-4497]

pKD [8]: 7.1 to 8 pkd | t1/2 (half-life of the complex, SPR) [12]: ≤ 2 min
Binder: {DOTA-APAc″}-VYCE[dP]D[Aph(HO-Succinyl)]LTWSC-NH2 (linker 3-12 via mXylylene) [3BP-4356]

t1/2 (half-life of the complex, SPR) [9]: 2.1 to 5 min | pIC50 [11]: 7.1 to 8 pic50
Binder: {DOTA-PPAc}-QCE[dP]D[Af3(PrHydr)]LTWSC-NH2 (linker 2-11 via mXylylene) [3BP-4515]

pKD [2]: < 6 pkd | t1/2 (half-life of the complex, SPR) [3]: > 15 min | pKD [4]: < 6 pkd | pKD [5]: < 6 pkd
Binder: {DOTA-PPAc″}-QCE[dP]D[Phe(3-NHCO(CH2)3SO2NH2)]LTWSC-NH2 (linker 2-11 via mXylylene; reading uncertain, also called DPI-4452) [3BP-4452]

pKD [8]: 7.1 to 8 pkd | t1/2 (half-life of the complex, SPR) [12]: ≤ 2 min
Binder: {DOTA-APAc″}-VYCE[dP]D[Af3(DkpAc)]LTWSC-NH2 (linker 3-12 via mXylylene) [3BP-4288]

pKD [2]: < 6 pkd | t1/2 (half-life of the complex, SPR) [3]: > 15 min | pKD [4]: < 6 pkd | pKD [5]: < 6 pkd
B3: 3BP-4501 (peptide)
peptide: {DOTA}-QCE[dP]D[Aph(SaPr)]LTWSC-NH2
modifications: linker 2-11 via mXylylene
SMILES: CC(C)C[C@@H]1NC(=O)[C@H](Cc2ccc(NC(=O)CCS(N)(=O)=O)cc2)NC(=O)[C@H](CC(=O)O)NC(=O)[C@H]2CCCN2C(=O)[C@H](CCC(=O)O)NC(=O)[C@@H](NC(=O)[C@H](CCC(N)=O)NC(=O)CN2CCN(CC(=O)O)CCN(CC(=O)O)CCN(CC(=O)O)CC2)CSCc2cccc(c2)CSC[C@@H](C(N)=O)NC(=O)[C@H](CO)NC(=O)[C@H](Cc2c[nH]c3ccccc23)NC(=O)[C@H]([C@@H](C)O)NC1=O
notes: also called DPI-4501

pIC50 [6]: 6.1 to 7 pic50
Binder: {DOTA-PPAc}-QCE[dP]D[Af3(Aytr)]LTWSC-NH2 (linker 2-11 via mXylylene) [3BP-4847]

pIC50 [7]: > 8 pic50
Binder: {DOTA-Gab}-DCE[dP]DWLTW[Dap]C-NH2 (lactam 10-1; linker 2-11 via mXylylene) [3BP-4263]

pIC50 [7]: > 8 pic50
B4: 3BP-4337 (peptide)
peptide: VDCE[dP]DWLTW[Dap]C-NH2
modifications: lactam 2-11; linker 3-12 via mXylylene; not fully specified (N-terminus); also: indium complexed by DOTA

pIC50 [6]: 6.1 to 7 pic50
Binder: {DOTA-PPAc}-QCE[dP]D[Aph(Hspy)]LTWSC-NH2 (linker 2-11 via mXylylene) [3BP-4814]

pKD [8]: 7.1 to 8 pkd | t1/2 (half-life of the complex, SPR) [12]: ≤ 2 min
Binder: {DOTA-APAc″}-VYCE[dP]D[Af3(CMPy)]LTWSC-NH2 (linker 3-12 via mXylylene) [3BP-4305]

pIC50 [7]: > 8 pic50
B5: 3BP-4264 (peptide)
peptide: {DOTA}-VDCE[dP]DWLTW[Dap]C-NH2
modifications: lactam 2-11; linker 3-12 via mXylylene
SMILES: CC(C)C[C@@H]1NC(=O)[C@H](Cc2c[nH]c3ccccc23)NC(=O)[C@H](CC(=O)O)NC(=O)[C@H]2CCCN2C(=O)[C@H](CCC(=O)O)NC(=O)[C@@H]2CSCc3cccc(c3)CSC[C@@H](C(N)=O)NC(=O)[C@H](CNC(=O)C[C@H](NC(=O)[C@@H](NC(=O)CN3CCN(CC(=O)O)CCN(CC(=O)O)CCN(CC(=O)O)CC3)C(C)C)C(=O)N2)NC(=O)[C@H](Cc2c[nH]c3ccccc23)NC(=O)[C@H]([C@@H](C)O)NC1=O

pIC50 [6]: 6.1 to 7 pic50
Binder: {DOTA-PPAc}-QCE[dP]D[Af3(Hytr)]LTWSC-NH2 (linker 2-11 via mXylylene; reading uncertain) [3BP-4882]

pIC50 [6]: 6.1 to 7 pic50
Binder: {DOTA-PPAc}-QCE[dP]D[Af3(Cshx)]LTWSC-NH2 (linker 2-11 via mXylylene) [3BP-4787]

pKD [2]: < 6 pkd | t1/2 (half-life of the complex, SPR) [3]: > 15 min | pKD [4]: < 6 pkd | pKD [5]: < 6 pkd
B6: 3BP-4555 (peptide)
peptide: QCE[dP]D[Phe(3-NHCO(CH2)3SO2NH2)]LTWSC-NH2
modifications: linker 2-11 via mXylylene; not fully specified (N-terminus); also: Lu complexed in DOTA
notes: also called natLu-DPI-4452
